From the Immune Epitope Database (IEDB)

What was measured:
HLA-A*01:01 [1] = test: IEDB peptide-MHC binding, purified MHC/competitive/radioactivity; ≥ and ≤ were set here for values at or beyond the usual limits of such assays; conditions: source organism: Homo sapiens
HLA-A*01:01 [2] = test: IEDB peptide-MHC binding, purified MHC/competitive/radioactivity; filed as Kd, often an IC50 or EC50 that approximates it; ≥ and ≤ were set here for values at or beyond the usual limits of such assays; conditions: source organism: Homo sapiens

| Sequence | IC50 (HLA-A*01:01 [1]) | Kd (HLA-A*01:01 [2]) |
| --- | --- | --- |
| FATCLGLSY | 0.658 µM |  |
| KVAELVHFL |  | ≥ 36 µM |
| LLGDNQIMPK |  | ≥ 36 µM |
| LVFGIELMEV |  | ≥ 36 µM |
| LYIFATCLGL |  | ≥ 36 µM |
| NYPLWSQSY |  | ≥ 36 µM |

More lines, now with the values ahead:

| IC50 (HLA-A*01:01 [1]) | Kd (HLA-A*01:01 [2]) | Sequence |
| --- | --- | --- |
|  | 12.5 µM | IFATCLGLSY |
|  | ≥ 36 µM | KMVELVHFLL |
|  | 12.5 µM | LGSVVGNWQY |
|  | 2.98 µM | LVTCLGLSY |
